{
  "source": "paper PMC10312659",
  "molecular_target": "Polyketide synthase 13 (Pks13) of Mycobacterium smegmatis, endogenous, with native substrates bound (Mycobacterium smegmatis) (UniProt A0R617)",
  "experiment": "SEC",
  "data": [
    {"substance": "Polyketide synthase 13 (Pks13) of Mycobacterium smegmatis, endogenous, with native substrates bound (from UniProt A0R617 1-1816) (enzyme)", "values": [
      {"measurement": "stoichiometry N", "value": 4}
    ]}
  ]
}
